Measurements as given in patent US20250277025A1.
Positions count from the first letter of the chain named.

B1: YL-G2-B (antibody, human IgG1, kappa)
heavy: EVQLQQSGPELEKPGASVKISCKASGYSFTGYKMNWVKQSNGKSLEWIGNIDPYYGGTTYNQKFKGKATLTVDKSSSTAYMQLKSLTSEDSAVYYCARYGKGNTMDYWGQGTSVTVSSASTKGPSVFPLAPSSKSTSGGTAALGCLVKDYFPEPVTVSWNSGALTSGVHTFPAVLQSSGLYSLSSVVTVPSSSLGTQTYICNVNHKPSNTKVDKRVEPKSCDKTHTCPPCPAPELVGGPSVFLLPPKPKDTLMISRTPEVTCVVVDVSHEDPEVKFNWYVDGVEVHNAKTKPPEEQYNSTLRVVSVLTVLHQDWLNGKEYKCKVSNKALPAPIEKTISKAKGQPREPQVYTLPPSREEMTKNQVSLTCLVKGFYPSDIAVEWESNGQPENNYKTTPLVLDSDGSFFLYSKLTVDKSRWQQGNVFSCSVMHEALHNHYTQKSLSLSPGK
light: DIVMTQSPSSLTVTAGEKVTMSCKSSQSLLNSGNQKNYLTWYQQRPGQPPKLLIYWASTRESGVPVRFTGSGSGTDFTLTISSVQAEDLAVYYCQNAYIYPLTFGTGTKLELKRTVAAPSVFIFPPSDEQLKSGTASVVCLLNNFYPREAKVQWKVDNALQSGNSQESVTEQDSKDSTYSLSSTLTLSKADYEKHKVYACEVTHQGLSSPVTKSFNRGEC
B2: YL-G2-D (antibody, human IgG1, kappa)
heavy: QLQQSGPELEKPGASVKISCKASGYSFTGYKMNWVKQSNGESLEWIGNIDPYYGDTTYTQKFKGKATFTVDTSSSTAYMQLKSLTSEDSAVYFCARYNRGNTMDYWGQGTSVTVSSASTKGPSVFPLAPSSKSTSGGTAALGCLVKDYFPEPVTVSWNSGALTSGVHTFPAVLQSSGLYSLSSVVTVPSSSLGTQTYICNVNHKPSNTKVDKRVEPKSCDKTHTCPPCPAPELVGGPSVFLLPPKPKDTLMISRTPEVTCVVVDVSHEDPEVKFNWYVDGVEVHNAKTKPPEEQYNSTLRVVSVLTVLHQDWLNGKEYKCKVSNKALPAPIEKTISKAKGQPREPQVYTLPPSREEMTKNQVSLTCLVKGFYPSDIAVEWESNGQPENNYKTTPLVLDSDGSFFLYSKLTVDKSRWQQGNVFSCSVMHEALHNHYTQKSLSLSPGK
light: B1 light with M21L, T75A, Y93F, I99F, K113R
B3: YL-G2-C (antibody, human IgG1, kappa)
heavy: QIQLVQSGPELRKPGETVKISCKASGFPFTTDGMSWVKQAPGKGLKWMGWINTYSGVPTYADDFKGRVAFSLETSASTAYLQIKNLKNEDTATYFCARFRRGNALDNWGQGTSVTVSSASTKGPSVFPLAPSSKSTSGGTAALGCLVKDYFPEPVTVSWNSGALTSGVHTFPAVLQSSGLYSLSSVVTVPSSSLGTQTYICNVNHKPSNTKVDKRVEPKSCDKTHTCPPCPAPELVGGPSVFLLPPKPKDTLMISRTPEVTCVVVDVSHEDPEVKFNWYVDGVEVHNAKTKPPEEQYNSTLRVVSVLTVLHQDWLNGKEYKCKVSNKALPAPIEKTISKAKGQPREPQVYTLPPSREEMTKNQVSLTCLVKGFYPSDIAVEWESNGQPENNYKTTPLVLDSDGSFFLYSKLTVDKSRWQQGNVFSCSVMHEALHNHYTQKSLSLSPGK
light: B1 light with R45K, V66D, V91I, A97N, I99F, T106A, K109R

molecular target: recombinant huCLDN18.2-Fc (Sino Biological, P/N: 20047-H02H) (human); assay: KinExA 4000 equilibrium, antibody constant, recombinant huCLDN18.2-Fc titrated

Row | Kd | Binder
1 | 1.7 nM | B1
2 | 6.4 nM | B2
3 | 3.8 nM | B3
